According to the supplement of paper PMC10567573:
± gives the standard deviation.

Test: protein stability index of a GFP-peptide fusion (GPS, HEK-293T) (PSI 1-6); higher = more stable
[1] = treatment: DMSO, c terminus: a fixed tail appended
[2] = treatment: MLN4924 1 uM, 8 h, c terminus: a fixed tail appended
[3] = treatment: DMSO, c terminus: native
[4] = treatment: MLN4924 1 uM, 8 h, c terminus: native
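Further: 24-mer peptide tiles fused after GFP, lentivirally expressed, FACS-sorted into six equal bins by GFP/DsRed ratio, decoded by Illumina sequencing, PSI is the read-weighted mean bin number.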

Sequence | protein stability index [1] | protein stability index [2] | protein stability index [3] | protein stability index [4]
GYQHVDLQNFSSSWSDGMAFCALV [SMTNL2] | 2.16 ± 0.49 | 2.01 ± 0.15 |  | 
DHSFSLELGSEVDITEGDRKPDYT [ATF4] | 5.2 ± 0.29 | 5.34 ± 0.18 |  | 
IWDINNQICTVKDIKAEPQPLSPA [ATF6] | 3.96 ± 0.21 | 4.1 ± 0.24 |  | 
VYPRPPEPREFSSRNFGVRNQGNF [ZC2HC1C] | 3.24 ± 0.15 | 3.24 ± 0.29 |  | 
AQAGTPAPTKPHDYRQEQPETFWI [SPAG8] | 3.54 ± 0.29 | 3.59 ± 0.29 |  | 
LDPVAETAIRQLTEPSGRVAKKTP [C2CD2L] | 5.66 ± 0.17 | 5.18 ± 0.47 |  | 
MGPDEYEEMEEEEEEEEEEDEDDD [FBXO3] | 5.42 ± 0.22 | 5.47 ± 0.14 |  | 
AKSRAEAALEEESRQRQSRMEKGE [SMARCE1] | 5.55 ± 0.22 | 5.38 ± 0.22 |  | 
ALNFMKGCLKMNPDDRLTCSQLLE [CDKL4] | 2.32 ± 0.18 | 2.55 ± 0.38 |  | 
IHDLDLTLLNPRMIVDVTPYMNPS [CLCN6] | 2.29 ± 0.19 | 2.26 ± 0.25 |  | 
LLLLLLTFFLRTDAETPPRFTRTP [PTPRD] | 2.32 ± 0.43 | 2.36 ± 0.49 |  | 
ALCVVDTIKRSSQTGEWQNIAIMT [GFOD1] | 2.31 ± 0.24 | 2.2 ± 0.14 |  | 
TPLHRDKTPLHQKHAAFVTPDQKY [MYBL2] | 4.11 ± 0.2 | 4.08 ± 0.24 |  | 
LSTIEELIKDAIVSTQPAMMVNLR [C2CD2L] | 2.2 ± 0.29 | 2.35 ± 0.17 |  | 
YSTRYGSPKRQLQFYRNLGKSGLR [KCNAB2] | 2.59 ± 0.18 | 2.69 ± 0.19 |  | 
ILNSMNSLRKSNTLCDVTLRVEQK [KLHL12] | 2.65 ± 0.18 | 2.9 ± 0.33 |  | 
PGPSWVRGSGPSVLSRLQDAAVVR [ALKBH7] | 3.58 ± 0.37 | 3.78 ± 0.23 |  | 
PTGLLALQQIADFMTTNVPNVYPA [ADD1] | 2.1 ± 0.47 | 2.14 ± 0.25 |  | 
RALSDTTEELTVIKSSLKDEYQYS [SLC2A12] | 4.54 ± 0.22 | 4.68 ± 0.08 |  | 
DQTALSLEECLRLLEATCPFGENA [NFE2L1] | 3.31 ± 0.72 | 3.8 ± 0.74 |  | 
YLATEYLETHFRDVSSTEEFLELS [GAN] | 3.13 ± 0.29 | 3.2 ± 0.35 |  | 
EEGDEDDWASNKVMFKIGDLGHVT [WEE1] | 4.1 ± 0.23 | 4.39 ± 0.2 |  | 
DTTEEVDHKPKLCRLAKGENGYGF [PDZK1] | 3.64 ± 0.32 | 3.79 ± 0.38 |  | 

Sequence | protein stability index [1] | protein stability index [2] | protein stability index [3] | protein stability index [4]
TIPLFVQLLYSPIENIQRVAAGVL [CTNNB1] | 2.77 ± 0.78 | 2.71 ± 0.38 |  | 
WMEILILGVVYRSLSFEDELVYAD [ESRRG] | 3.77 ± 0.27 | 2.68 ± 0.25 |  | 
SEGFESDSSHDSARASEGSDSGSD [SMG5] | 5.51 ± 0.3 | 5.7 ± 0.1 |  | 
CHDKYTKIFNDFKDRMKSDHKRET [ZMYND11] | 4.08 ± 0.28 | 3.9 ± 0.28 |  | 
HGQENIVRILLRRGVDVSLQGKDA [RIPK4] | 2.5 ± 0.087 | 3.13 ± 0.24 |  | 
FSEETEKKFEHFSGLLNNQLSPQ [LOXL2] |  |  | 3.57 ± 0.72 | 4.61 ± 0.37
NRQTFVNSAIRFLRKYSFDGLDLD [CHIT1] | 1.99 ± 0.27 | 2.48 ± 0.22 |  | 
HELMLRFKDEYKSENIKLREENEK [CCDC89] | 5.21 ± 0.36 | 5.29 ± 0.13 |  | 
EIDIFNPQTVGVGRARFTTYEVRM [SNX12] | 2.36 ± 0.069 | 2.57 ± 0.44 |  | 
NTTEELEALITDPDEMRMQALLIR [FEM1A] | 3.93 ± 0.29 | 3.86 ± 0.27 |  | 
NEHSAHCPHTPEFSVTGGTEEKSS [RPAIN] | 5.44 ± 0.24 | 5.28 ± 0.15 |  | 
SQEPDPVQRLQAYTATEQEMQQQM [TRIM14] | 5.39 ± 0.15 | 5.17 ± 0.14 |  | 
SSKSRAAPSPQEALVRLRETEEML [CHMP4C] | 2.79 ± 0.58 | 3.45 ± 0.81 |  | 
PSYKVKVTGLNPKTKYILLMDIVP [TBX5] | 2.73 ± 0.28 | 2.83 ± 0.49 |  | 
TVRFCILGKESFYDTFHTVADMMY [HACD3] | 2.8 ± 0.69 | 2.85 ± 0.78 |  | 
KTESSGIETEPTVHHLPLSTEKVV [EPB41L3] | 5.21 ± 0.14 | 5 ± 0.25 |  | 
LYYSNFVLALEERFGVRPKVTGYL [MFSD9] | 2.76 ± 0.86 | 2.91 ± 0.79 |  | 
MTTTFLQTSSSTFGGGSTRGGSLL [KRT15] | 2.8 ± 0.35 | 2.97 ± 0.46 |  | 
LHVSLGQKLVAAYVLGLLTMVFLR [MOSPD3] | 3.17 ± 0.42 | 2.89 ± 0.28 |  | 
RADLVFIIDSSRSVNTHDYAKVKE [MATN2] | 2.51 ± 0.32 | 2.72 ± 0.34 |  | 
LLQRELAQEDSLNKLALQYGCKVA [LYSMD4] | 2.21 ± 0.34 | 2.52 ± 0.57 |  | 
IVSNFNYFYHRETENEEQTQLTQN [KCNA4] | 3.03 ± 0.12 | 3.38 ± 0.25 |  | 
GTFQVNFYHDHTKIIICSQNEEYL [PLK2] | 2.5 ± 1.1 | 2.21 ± 0.42 |  | 

Sequence | protein stability index [1] | protein stability index [2] | protein stability index [3] | protein stability index [4]
GGGPSATEWACILRRKTPRHKQPT [C6orf223] | 3.57 ± 0.12 | 3.72 ± 0.16 |  | 
VAPATMGSARSHASSRASENQSPS [ZBTB22] | 4.96 ± 0.073 | 5.07 ± 0.14 |  | 
GSGFGGGYGGGLGAGFGGGLGAGF [KRT16] | 2.27 ± 0.25 | 2.54 ± 0.67 |  | 
TSQFLSLQCLQALYVDSLFFLRGR [PRAME] | 2.49 ± 0.67 | 2.96 ± 0.82 |  | 
SEFQAALSRKVAELVHFLLLKYRA [MAGEA3] | 2.57 ± 0.56 | 2.48 ± 0.51 |  | 
DGYCMFNHVAVAARYAQQKHRIRR [HDAC6] | 3.05 ± 0.42 | 3.53 ± 0.2 |  | 
GVVHPSNEVLSSDILPRWAIIGWL [INTS3] | 2.13 ± 0.41 | 2.18 ± 0.45 |  | 
GLMTQSSLETHHYVDCGGNSTAI [TMEM106C] |  |  | 3.18 ± 0.074 | 3.6 ± 0.13
QLKACTNFDDILNVCDDYDVTCNE [KCNG1] | 4.42 ± 0.16 | 4.63 ± 0.085 |  | 
SRKKPIWNVLMWTSLFLGNGVLLC [SOAT1] | 2.67 ± 0.81 | 2.73 ± 0.61 |  | 
ALMHELSNDGARRQFEFYLEEMIL [BTBD10] | 2.24 ± 0.037 | 2.36 ± 0.69 |  | 
RCRQSLEDSESLRIKEVEHMTRHL [LRRC45] | 3.42 ± 0.14 | 3.46 ± 0.17 |  | 
FKLLDKNSSGDIGKKEIKPFKRFL [SMOC2] | 2.54 ± 0.42 | 3.01 ± 0.43 |  | 
TGILLHPWLRQDPMPLAPTRSHLW [TRIB3] | 2.11 ± 0.25 | 2.18 ± 0.089 |  | 
GFTPLHMAVDKDTTNVGRYPVGRF [FEM1A] | 3.43 ± 0.089 | 3.6 ± 0.36 |  | 
CMVGLLLIALLTWGYIRYSGQYRE [ATL3] | 2.95 ± 0.25 | 3.04 ± 0.36 |  | 
HSVLQGFIPLFQKFRLTGFRKTD [TMEM40] |  |  | 2.69 ± 0.62 | 2.69 ± 0.43
FGSFLLLLFSLTQFSVVSVVAYLA [RTN1] | 3.14 ± 0.62 | 3.35 ± 0.6 |  | 
DRLTTFQENQARTHVLSKEVQHLR [LRRC45] | 4.12 ± 0.13 | 4.29 ± 0.16 |  | 
PVGFGRRTDPNGDYIRRYLPVLRG [CRY1] | 3.14 ± 0.2 | 3.17 ± 0.39 |  | 
FGDLSLSLVTVGKHLTARVLCLIV [POMT2] | 3.39 ± 0.76 | 2.71 ± 0.48 |  | 
YPASTSQDSFEAAGNSTSGSRAGA [KCNA3] | 5.21 ± 0.24 | 5.2 ± 0.35 |  | 
SACTVALHIFQLNEDGPSSENLEE [TRIP13] | 3.23 ± 0.2 | 3.33 ± 0.19 |  | 

Sequence | protein stability index [1] | protein stability index [2] | protein stability index [3] | protein stability index [4]
GLKASLERLQLEYVDVVFANRPDP [KCNAB2] | 2.47 ± 0.42 | 2.21 ± 0.37 |  | 
ELENLAAMDLELQKIAEKFSQRG [CHGB] |  |  | 2.62 ± 0.28 | 3.33 ± 0.64
LETNQQHFHALCHSLLVSTHVPR [M1AP] |  |  | 2.48 ± 0.43 | 3.13 ± 0.9
FESHDLLRKGFSCVKNELLPSHPL [POMP] | 2.92 ± 0.31 | 3.05 ± 0.42 |  | 
PSAILRTPESTKPGPVCQPPVSQS [ANKRD40] | 4.59 ± 0.23 | 4.45 ± 0.18 |  | 
QSEPSEQDGVLDLSTKKSPCAGST [LCOR] | 5.39 ± 0.22 | 5.46 ± 0.29 |  | 
QVALLRLTWSELFVLNAAQCSMPL [NR2F2] | 2.97 ± 0.44 | 3 ± 0.41 |  | 
AILRVIRLVRVFRIFKLSRHSKGL [KCNA1] | 2.28 ± 0.36 | 2.46 ± 0.24 |  | 
SGKESPPVSDTPDEGDEPMPIPED [IKZF1] | 5.866 ± 0.015 | 5.71 ± 0.38 |  | 
NGSYLELSSDRVANSSSEAPFPNV [ADAMTSL2] | 4.52 ± 0.18 | 4.28 ± 0.15 |  | 
LLEESDGEGEPGQGEGPEAGDAEV [NOP53] | 5.62 ± 0.22 | 5.61 ± 0.14 |  | 
QSLVSILRTTVHHAFPVVTENRGN [CLCN6] | 2.69 ± 0.57 | 2.46 ± 0.059 |  | 
LVTIARKASLWQFLSSEKQICGTH [TRIM43] | 2.06 ± 0.34 | 2.17 ± 0.45 |  | 
EKLQKEQKELQDVGQSLRIKEQEV [SASS6] | 4.79 ± 0.94 | 5.29 ± 0.04 |  | 
RSWFPSAPGSASSSKVSGVLKKLA [YJU2B] | 2.61 ± 0.27 | 2.5 ± 0.38 |  | 
DNVAYARAFNTDHQTQLLYQASAM [RAD51] | 3.12 ± 0.047 | 3.27 ± 0.15 |  | 
TQAPPSVILGVTNPFFAKTLQHWP [DENND6A] | 2.26 ± 0.24 | 2.12 ± 0.17 |  | 
YKKGIIRKPDISQRLVYQFVHPI [SPDEF] |  |  | 2.43 ± 0.48 | 2.63 ± 0.4
ENLIMFQNLANEEVRKLTQRLEEM [MATN2] | 3.58 ± 0.094 | 3.17 ± 0.47 |  | 
KENREEARFQDKQYSSHHTAEKRK [CHGB] | 5.21 ± 0.41 | 4.89 ± 0.34 |  | 
